Experimental data taken from US20160251438A1 (LUDWIG INSTITUTE FOR CANCER RESEARCH, published 2016).

Key:
[1] = molecular target: T1, mGARP/hTGF-β1 complex on the cell surface (mouse; human, UniProt G3XA59 18-663); experiment: FACS, 293T, HA-tagged mouse GARP + hTGFB1
T1 construct: whole, on cells; also called cells transfected with hTGFB1 and mGARP

[2] = molecular target: T2, GARP L140K/E142L / TGF-β1 complex (human, UniProt Q14392 20-662; P01137 30-390); experiment: FACS titration on transfected 293T; EC50 mutant / EC50 WT [cont.) B]
T2 sequence (Q14392 20-662 L140K/E142L limits assumed, chain 1 of 2): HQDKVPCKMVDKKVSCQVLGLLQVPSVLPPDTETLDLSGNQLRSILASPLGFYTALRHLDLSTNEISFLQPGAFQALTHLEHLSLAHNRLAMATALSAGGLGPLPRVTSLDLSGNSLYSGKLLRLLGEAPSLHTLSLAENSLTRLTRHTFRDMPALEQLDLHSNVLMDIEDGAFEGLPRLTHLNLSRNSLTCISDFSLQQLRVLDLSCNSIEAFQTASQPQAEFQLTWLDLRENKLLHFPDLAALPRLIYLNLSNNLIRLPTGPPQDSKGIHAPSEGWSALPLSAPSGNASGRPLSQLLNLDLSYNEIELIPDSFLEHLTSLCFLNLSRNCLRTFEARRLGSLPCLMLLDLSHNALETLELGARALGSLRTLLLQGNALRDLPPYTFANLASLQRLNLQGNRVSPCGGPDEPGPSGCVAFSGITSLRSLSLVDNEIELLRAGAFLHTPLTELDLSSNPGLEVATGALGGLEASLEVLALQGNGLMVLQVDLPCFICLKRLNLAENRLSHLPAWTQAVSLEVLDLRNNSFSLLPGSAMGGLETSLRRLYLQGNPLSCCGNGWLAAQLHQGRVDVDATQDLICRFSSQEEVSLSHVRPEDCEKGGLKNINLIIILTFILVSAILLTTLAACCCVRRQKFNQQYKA
T2 sequence (P01137 30-390 limits assumed, stated change not applied, chain 2 of 2): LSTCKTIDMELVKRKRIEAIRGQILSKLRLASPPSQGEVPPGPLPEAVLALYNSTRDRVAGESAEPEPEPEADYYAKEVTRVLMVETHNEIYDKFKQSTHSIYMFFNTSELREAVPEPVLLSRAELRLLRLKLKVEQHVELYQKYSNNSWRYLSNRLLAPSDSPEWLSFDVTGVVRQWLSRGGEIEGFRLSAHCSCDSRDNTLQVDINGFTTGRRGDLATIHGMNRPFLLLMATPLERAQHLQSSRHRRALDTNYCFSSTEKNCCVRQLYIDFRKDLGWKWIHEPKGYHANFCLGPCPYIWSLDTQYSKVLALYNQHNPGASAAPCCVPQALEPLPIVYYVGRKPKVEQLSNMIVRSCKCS
Experimental: (§1) Intensities of staining at each concentration of antibody relative to the maximal intensity measured at 5 μg/ml were determined as follows:
(§2) The relative staining intensities were plotted according to the concentration of antibody used for staining, and a non-linear regression analysis was used with the Prism software to determine an EC₅₀ value for binding of the antibody to the WT and to each of the various mutant GARP/TGF-β1 complexes. If the ratio between the EC₅₀ measured on the mutant and the EC₅₀ measured on the WT was >2, the mutation was considered to induce a reduced avidity for binding by the antibody. The ratio of EC₅₀ (mutant vs WT) for MHG-8 and LHG-10 are indicated below each mutation on FIG. 19, parts A and B, respectively.

[3] = molecular target: T3, GARP R170A / TGF-β1 complex (human, UniProt Q14392 20-662; P01137 30-390); experiment: as above
T3 sequence (Q14392 20-662 R170A limits assumed, chain 1 of 2): as the sequence (Q14392 20-662 L140K/E142L limits assumed, chain 1 of 2) above, with K121L, L123E, R151A counted along it
T3 sequence (P01137 30-390 limits assumed, chain 2 of 2): as the sequence (P01137 30-390 limits assumed, stated change not applied, chain 2 of 2) above
Experimental: as §1, §2

[4] = molecular target: GARP E189A / TGF-β1 complex (human, UniProt Q14392 20-662; P01137 30-390); experiment: as above
Experimental: as §1, §2

[5] = molecular target: T4, GARP / TGF-β1 R58A complex (human, UniProt Q14392 20-662; P01137 30-390); experiment: as above
T4 sequence (Q14392 20-662 limits assumed, chain 1 of 2): as the sequence (Q14392 20-662 L140K/E142L limits assumed, chain 1 of 2) above, with K121L, L123E counted along it
T4 sequence (P01137 30-390 R58A limits assumed, chain 2 of 2): as the sequence (P01137 30-390 limits assumed, stated change not applied, chain 2 of 2) above, with R29A counted along it
Experimental: as §1, §2

[6] = molecular target: GARP S116N / TGF-β1 complex (human, UniProt Q14392 20-662; P01137 30-390); experiment: flow cytometry on transfected 293T cells, 5 ug/ml; grade of Loss of binding read by footnote 2
Excerpt: (§3) Resolution of the crystal structure of MHG-8 Fab/GARP/TGF-β1 complexes and analysis with the CONTACT software allowed the identification of 22 amino-acids in GARP, 8 amino-acids in LAP and 6 amino-acids in mature TGF-β1 that are located less than 5 Å away from an amino-acid of the light or heavy chain of the MHG-8 Fab (Tables 7a, b and c, and Table 8). Directed mutagenesis was used to construct plasmids encoding HA-tagged forms of GARP or TGF-β1 that are mutated at one, two, or three of these 36 positions (all mutations constructed are indicated in Table 8). […] Antibodies were used at a saturating concentration of 5 μg/ml for labeling. Binding of each antibody to a given mutant GARP/TGF-β1 complex was compared to their binding to wild type (WT) complexes, by determining an I_{m/wt} value (i.e. intensity of binding to mutant by comparison to WT). This value was calculated as follows: I_{m/wt} of antibody X=[Geom on mutant−Geom on control]/[Geom on WT−Geom on control]
(§4) The level of residual binding of anti-GARP or anti-LAP antibodies to each mutant was then calculated by comparison to WT, taking into account the expression levels of mutant and WT forms as measured with anti-HA antibodies. Residual binding was calculated as follows: Residual binding by an anti-GARP or anti-LAP antibody=[I_{m/wt} with anti-GARP or anti-LAP antibody]/[I_{m/wt} with anti-HA antibody]

[7] = molecular target: GARP S138G / TGF-β1 complex (human, UniProt Q14392 20-662; P01137 30-390); experiment: as above
Excerpt: as §3, §4

[8] = molecular target: GARP G139N / TGF-β1 complex (human, UniProt Q14392 20-662; P01137 30-390); experiment: as above
Excerpt: as §3, §4

[9] = molecular target: T2, GARP L140K/E142L / TGF-β1 complex; experiment: as above
Excerpt: as §3, §4

[10] = molecular target: GARP T162D / TGF-β1 complex (human, UniProt Q14392 20-662; P01137 30-390); experiment: as above
Excerpt: as §3, §4

[11] = molecular target: T3, GARP R170A / TGF-β1 complex; experiment: as above
Excerpt: as §3, §4

[12] = molecular target: T4, GARP / TGF-β1 R58A complex; experiment: as above
Excerpt: as §3, §4

[13] = molecular target: GARP / TGF-β1 E100A complex (human, UniProt Q14392 20-662; P01137 30-390); experiment: as above
Excerpt: as §3, §4

[14] = molecular target: GARP / TGF-β1 H270Y complex (human, UniProt Q14392 20-662; P01137 30-390); experiment: as above
Excerpt: as §3, §4

[15] = molecular target: GARP / TGF-β1 L271R/Q272Y/S273W complex (human, UniProt Q14392 20-662; P01137 30-390); experiment: as above
Excerpt: as §3, §4

[16] = molecular target: GARP / TGF-β1 K338E complex (human, UniProt Q14392 20-662; P01137 30-390); experiment: as above
Sequence of GARP / TGF-β1 K338E complex (Q14392 20-662 limits assumed, chain 1 of 2): as the sequence (Q14392 20-662 L140K/E142L limits assumed, chain 1 of 2) above, with K121L, L123E counted along it
Sequence of GARP / TGF-β1 K338E complex (P01137 30-390 K338E limits assumed, chain 2 of 2): as the sequence (P01137 30-390 limits assumed, stated change not applied, chain 2 of 2) above, with K309E counted along it
Excerpt: as §3, §4

B1: LHG-10 (antibody, human IgG1, V domains shown)
VH: EVQLVQPGAELRNSGASVKVSCKASGYRFTSYYIDWVRQAPGQGLEWMGRIDPEDGGTKYAQKFQGRVTFTADTSTSTAYVELSSLRSEDTAVYYCARNEWETVVVGDLMYEYEYWGQGTQVTVSS
VL: DIQMTQSPTSLSASLGDRVTITCQASQSISSYLAWYQQKPGQAPKLLIYGASRLQTGVPSRFSGSGSGTSFTLTISGLEAEDAGTYYCQQYDSLPVTFGQGTKVELK
notes: llama-derived V regions in a full human IgG1
[1]
  binding result: no binding
[2]
  Ratio of EC50 (mutant / wt): 0.7
[3]
  Ratio of EC50 (mutant / wt): 1.5
[4]
  Ratio of EC50 (mutant / wt): 0.8
[5]
  Ratio of EC50 (mutant / wt): 1.5
[6]
  residual binding on mutant by comparison to WT: ≥ 50%
[7]
  residual binding on mutant by comparison to WT: ≥ 50%
[8]
  residual binding on mutant by comparison to WT: ≥ 50%
[9]
  residual binding on mutant by comparison to WT: ≥ 50%
[10]
  residual binding on mutant by comparison to WT: < 50%
[11]
  residual binding on mutant by comparison to WT: ≥ 50%
[12]
  residual binding on mutant by comparison to WT: ≥ 50%
[13]
  residual binding on mutant by comparison to WT: ≥ 50%
[14]
  residual binding on mutant by comparison to WT: ≥ 50%
[15]
  residual binding on mutant by comparison to WT: ≥ 50%
[16]
  residual binding on mutant by comparison to WT: < 50%
